The values below come from EP4631972A1, “SITE-SPECIFIC COUPLED PEGYLATED INTERLEUKIN-2 MUTANT WITH RECEPTOR AFFINITY PREFERENCE AND USE THEREOF” (priority 2022, dated 2024).

Numbered stars: 1 amine (or outer) side, 2 acyl side, 3 side chain; on linkers, the order of the positions; unused ones are H or OH. Square brackets hold non-standard residues; d marks the D form. Prk = N-ε-propargyloxycarbonyl-L-lysine, C#CCOC(=O)NCCCC[C@H](N[*:1])C(=O)[*:2]; PEG60k = one 60 kD PEG attached to the residue; Phe(4-Ac) = CC(=O)c1ccc(C[C@H](N)C(=O)O)cc1

The labels stand for the following.
T1: IL-2Rαβγ triple receptor (UniProt P01589 22-272; P14784 27-551; P31785 23-369)
T1 sequence (looked up) 1: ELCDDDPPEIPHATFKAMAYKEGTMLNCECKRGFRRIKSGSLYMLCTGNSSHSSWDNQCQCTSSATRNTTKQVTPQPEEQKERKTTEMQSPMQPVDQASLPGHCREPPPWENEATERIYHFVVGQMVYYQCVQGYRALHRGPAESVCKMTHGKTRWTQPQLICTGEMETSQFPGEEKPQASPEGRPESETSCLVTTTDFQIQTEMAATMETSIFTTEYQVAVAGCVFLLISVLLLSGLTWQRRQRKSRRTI
T1 sequence (looked up) 2: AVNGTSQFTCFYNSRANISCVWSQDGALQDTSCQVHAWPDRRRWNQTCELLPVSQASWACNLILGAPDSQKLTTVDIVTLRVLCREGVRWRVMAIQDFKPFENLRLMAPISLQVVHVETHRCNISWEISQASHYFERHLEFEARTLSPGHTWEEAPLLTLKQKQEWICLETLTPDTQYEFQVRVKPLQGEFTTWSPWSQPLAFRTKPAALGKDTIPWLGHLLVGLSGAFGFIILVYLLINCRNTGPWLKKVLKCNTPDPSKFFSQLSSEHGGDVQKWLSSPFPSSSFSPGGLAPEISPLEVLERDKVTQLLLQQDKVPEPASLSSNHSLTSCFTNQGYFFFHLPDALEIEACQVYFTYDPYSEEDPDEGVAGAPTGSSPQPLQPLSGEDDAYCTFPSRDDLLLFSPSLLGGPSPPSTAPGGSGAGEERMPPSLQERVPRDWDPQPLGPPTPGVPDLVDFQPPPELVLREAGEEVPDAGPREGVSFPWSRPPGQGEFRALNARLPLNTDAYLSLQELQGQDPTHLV
T1 sequence (looked up) 3: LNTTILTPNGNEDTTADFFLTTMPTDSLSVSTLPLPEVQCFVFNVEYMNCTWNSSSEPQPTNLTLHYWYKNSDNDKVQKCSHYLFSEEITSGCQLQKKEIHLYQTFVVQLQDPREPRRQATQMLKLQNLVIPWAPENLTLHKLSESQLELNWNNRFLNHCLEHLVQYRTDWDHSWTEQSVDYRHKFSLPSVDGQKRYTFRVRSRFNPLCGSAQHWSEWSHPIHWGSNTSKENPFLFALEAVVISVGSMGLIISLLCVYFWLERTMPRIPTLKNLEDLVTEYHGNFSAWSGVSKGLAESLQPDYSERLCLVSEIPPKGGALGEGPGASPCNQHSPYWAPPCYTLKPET

T2: IL-2βγ dual receptor (Homo sapiens, UniProt P14784+P31785)
T2 construct: Uniprot P14784 1Met-551Val was constructed into plasmid pcDNA3.1(+); Uniprot P31785 1Met-551Thr was constructed into plasmid pcDNA3.1/zeo; expressed in transfected cells; host or cells: 293EC18 cells, transient co-transfection with pCMV/JAK3 and PGL4.52/STAT5RE
T2 sequence (P14784 27-551): T1 sequence (looked up) 2
T2 sequence (P31785 23-369): T1 sequence (looked up) 3

B1: 40k-1PEG-IL2-N88R-N33Prk (ligand)
chain: APTSSSTKKTQLQLEHLLLDLQMILNGINNYK[Prk](PEG‑azide 40 kDa)PKLTRMLTFKFYMPKKATELKHLQCLEEELKPLEEVLNLAQSKNFHLRPRDLISRINVIVLELKGSETTFMCEYADETATIVEFLNRWITFSQSIISTLT
B2: 20k-1PEG-IL2-N88R-N33Prk (ligand)
chain: APTSSSTKKTQLQLEHLLLDLQMILNGINNYK[Prk](PEG‑azide 20 kDa)PKLTRMLTFKFYMPKKATELKHLQCLEEELKPLEEVLNLAQSKNFHLRPRDLISRINVIVLELKGSETTFMCEYADETATIVEFLNRWITFSQSIISTLT
B3: 40k-1PEG-IL2-N88R-N77Prk (ligand)
chain: APTSSSTKKTQLQLEHLLLDLQMILNGINNYKNPKLTRMLTFKFYMPKKATELKHLQCLEEELKPLEEVLNLAQSK[Prk](PEG‑azide 40 kDa)FHLRPRDLISRINVIVLELKGSETTFMCEYADETATIVEFLNRWITFSQSIISTLT
B4: 60k-1PEG-IL2-N88R-N33Prk (ligand)
chain: APTSSSTKKTQLQLEHLLLDLQMILNGINNYK[Prk](PEG 60 kDa)PKLTRMLTFKFYMPKKATELKHLQCLEEELKPLEEVLNLAQSKNFHLRPRDLISRINVIVLELKGSETTFMCEYADETATIVEFLNRWITFSQSIISTLT
B5: 60k-1PEG-IL2-N88R-N77Prk (ligand)
chain: APTSSSTKKTQLQLEHLLLDLQMILNGINNYKNPKLTRMLTFKFYMPKKATELKHLQCLEEELKPLEEVLNLAQSK[Prk](PEG 60 kDa)FHLRPRDLISRINVIVLELKGSETTFMCEYADETATIVEFLNRWITFSQSIISTLT
B6: 20k-1PEG-IL2-N88R-N77Prk (ligand)
chain: APTSSSTKKTQLQLEHLLLDLQMILNGINNYKNPKLTRMLTFKFYMPKKATELKHLQCLEEELKPLEEVLNLAQSK[Prk](PEG‑azide 20 kDa)FHLRPRDLISRINVIVLELKGSETTFMCEYADETATIVEFLNRWITFSQSIISTLT
B7: 80k-1PEG-IL2-N88R-S75C: IL-2 mutant N88R, S75C with one 80k PEG conjugated to cysteine 75 (conjugate)
chain: APTSSSTKKTQLQLEHLLLDLQMILNGINNYKNPKLTRMLTFKFYMPKKATELKHLQCLEEELKPLEEVLNLAQC(PEG 80 kDa)KNFHLRPRDLISRINVIVLELKGSETTFMCEYADETATIVEFLNRWITFSQSIISTLT
B8: 20k-1PEG-IL2-N88R-N77pAcF (ligand)
chain: APTSSSTKKTQLQLEHLLLDLQMILNGINNYKNPKLTRMLTFKFYMPKKATELKHLQCLEEELKPLEEVLNLAQSK[Phe(4-Ac)](PEG‑hydroxylamine 20 kDa)FHLRPRDLISRINVIVLELKGSETTFMCEYADETATIVEFLNRWITFSQSIISTLT
modifications: not fully specified
B9: 20k-1PEG-IL2-N88R-N33pAcF (ligand)
chain: APTSSSTKKTQLQLEHLLLDLQMILNGINNYK[Phe(4-Ac)](PEG‑hydroxylamine 20 kDa)PKLTRMLTFKFYMPKKATELKHLQCLEEELKPLEEVLNLAQSKNFHLRPRDLISRINVIVLELKGSETTFMCEYADETATIVEFLNRWITFSQSIISTLT
modifications: not fully specified
B10: 40k-1PEG-IL2-N88R-N77pAcF (ligand)
chain: APTSSSTKKTQLQLEHLLLDLQMILNGINNYKNPKLTRMLTFKFYMPKKATELKHLQCLEEELKPLEEVLNLAQSK[Phe(4-Ac)](PEG‑hydroxylamine 40 kDa)FHLRPRDLISRINVIVLELKGSETTFMCEYADETATIVEFLNRWITFSQSIISTLT
modifications: not fully specified
B11: 60k-1PEG-IL2-N88R-N77pAcF (ligand)
chain: APTSSSTKKTQLQLEHLLLDLQMILNGINNYKNPKLTRMLTFKFYMPKKATELKHLQCLEEELKPLEEVLNLAQSK[Phe(4-Ac)](PEG60k)FHLRPRDLISRINVIVLELKGSETTFMCEYADETATIVEFLNRWITFSQSIISTLT
B12: 60k-1PEG-IL2-N88R-N33pAcF (ligand)
chain: APTSSSTKKTQLQLEHLLLDLQMILNGINNYK[Phe(4-Ac)](PEG60k)PKLTRMLTFKFYMPKKATELKHLQCLEEELKPLEEVLNLAQSKNFHLRPRDLISRINVIVLELKGSETTFMCEYADETATIVEFLNRWITFSQSIISTLT
B13: 40k-1PEG-IL2-N88R-N33pAcF (ligand)
chain: APTSSSTKKTQLQLEHLLLDLQMILNGINNYK[Phe(4-Ac)](PEG‑hydroxylamine 40 kDa)PKLTRMLTFKFYMPKKATELKHLQCLEEELKPLEEVLNLAQSKNFHLRPRDLISRINVIVLELKGSETTFMCEYADETATIVEFLNRWITFSQSIISTLT
modifications: not fully specified

For one test, the target named is T1, IL-2Rαβγ triple receptor. Briefly: cell-based or functional assay.
Conditions: not given
For the molecule B1, the “Activation of IL-2αβγ receptor EC50 (STAT5 luciferase reporter gene assay)” value (“Activation of IL-2αβγ receptor EC50” for short) worked out at 0.443 nM.

As to B2, the “Activation of IL-2αβγ receptor EC50” value stood at 0.323 nM.

In the case of B3, the “Activation of IL-2αβγ receptor EC50” value was 0.517 nM.

In the case of B4, the “Activation of IL-2αβγ receptor EC50” value is 0.368 nM.

Take B5: the “Activation of IL-2αβγ receptor EC50” value was determined as 0.417 nM.

Turning to B6, the “Activation of IL-2αβγ receptor EC50” value turned out to be 0.361 nM.

Another test addresses T2, IL-2βγ dual receptor. Briefly: STAT5 reporter gene assay, activation of IL-2βγ dual receptor in 293EC18/βγ/JAK3/STAT5 cells. The format is cell-based. The following applies: Figure 1, concentration of 65.2 nM. The method, then:
Since the binding of IL-2 to the β and γ subunits of its receptor induces STAT5 phosphorylation, which subsequently leads to dimerization and translocation into the nucleus to promote target gene transcription, this example evaluates the ability of the mutant IL-2 polypeptides to induce signaling through the IL-2 receptor by measuring STAT5 phosphorylation.
Adherent 293EC18 cells were cultured to about 90% confluence using conventional methods. After trypsin digestion, the cells were resuspended in cell culture medium to 4×10^5 cells/ml and 50 µl/well were added to two 96-well cell culture plates. After incubation at 37°C for 48 h, the supernatant was aspirated and fresh culture medium was added. According to the manufacturer's method, four plasmids, pcDNA3.1(+)/CD122 (constructed by Nanjing Novoacine Biotechnology Co., Ltd, Uniprot P14784 1Met-551Val was constructed into plasmid pcDNA3.1(+)), pcDNA3.1/puro/CD132 (constructed by Nanjing Novoacine Biotechnology Co., Ltd, Uniprot P31785 1Met-551Thr was constructed into plasmid pcDNA3.1/zeo), pCMV/JAK3 (Sino Biological), and PGL4.52/STAT5RE (Promega) were transiently transfected into 293EC18 cells using a cationic transfection reagent (ExFect Transfection Reagent, Vazyme). The obtained cells were named 293EC18/βγ/JAK3/STAT5 cells. Alternatively, five plasmids, pcDNA3.1/zeo/CD25 (constructed by Nanjing Novoacine Biotechnology Co., Ltd, Uniprot P01589 1Met-551Ile constructed into plasmid pcDNA3.1/zeo), pcDNA3.1(+)/CD122 (constructed by Nanjing Novoacine Biotechnology Co., Ltd, Uniprot P14784 1Met-551Val constructed into plasmid pcDNA3.1(+)), pcDNA3.1/puro/CD132 (constructed by Nanjing Novoacine Biotechnology Co., Ltd, UniprotP31785 1Met-551Thr constructed into plasmid pcDNA3.1/zeo), pCMV/JAK3 (Sino Biological), and PGL4.52/STAT5RE (Promega) were transiently transferred into 293EC18 cells, and the obtained cells were named 293EC18/αβγ/JAK3/STAT5 cells. The transfected cells were incubated at 37°C and 5% CO2 for another 6 h.
Each IL2 mutant was diluted 4-fold in a gradient manner using PBS buffer, with a total of 11 dilutions and a starting concentration of 65.2 nM. In the above cell culture plates, 50 µl/well of each of the serially diluted IL2 mutant samples was added in duplicate. Then, the cell culture plate was placed in an incubator at 37°C and 5% CO2 for overnight culture. The cell culture plates were kept at room temperature for 20 ± 5 minutes to equilibrate the plates to room temperature. Bio-Lite Luciferase Assay System reagents that have been mixed and equilibrated to room temperature were added to the cell culture plates to be tested at 100 µl/well, placed on a microplate shaker at 450 rpm to mix for 2 minutes, then allowed to stand at room temperature for 3 minutes, and the chemiluminescence value was detected with an enzyme plate reader.
The logarithm of the final concentration of each IL-2 mutant sample was used as the X-axis, and the chemiluminescence detection results were used as the Y-axis for plotting. Data were analyzed using the four-parameter logistic regression model in GraphPad Prism 9. Table 2 EC50 values for the activation of the IL-2αβγ triple receptor by PEG-IL-2 mutants as determined by a reporter gene assay.
According to the method of Example 3, each polyethylene glycol-modified mutant obtained in this example was assessed for the binding preference to the IL2 receptors by a reporter assay. Table 4 EC50 values for the activation of the IL-2αβγ triple receptor by PEG-IL-2 mutants as determined by a reporter gene assay.
Referring to Example 3, the phosphorylation of STAT5 was used to evaluate the ability of the PEG-modified IL-2 mutants having a non-natural amino acid mutation prepared in Example 14 to induce signal transduction via the IL-2 receptor. […]
A general note: A reporter such as luciferase makes a cellular process visible.
For B7, the “activation effect on the IL-2Rβγ dual receptor compared with control IL-2 N88R” value was “lower activation effects”.

Still in this test, the particulars now being: Figure 2, all concentrations.
In the case of B7, the “activation effect on / affinity to IL-2Rβγ dual receptor compared with control IL-2 N88R” value is “further reduced the affinity to IL-2Rβγ”.

The target in a further test is T1, IL-2Rαβγ triple receptor. Kind of test: cell-based or functional assay.
Conditions: not given
This is another data set of the same source.
For B8, the “Activation of IL-2αβγ triple receptor EC50 (STAT5 luciferase reporter gene assay)” value was found to be 0.5 nM.

On to B9, for which the “Activation of IL-2αβγ triple receptor EC50 (STAT5 luciferase reporter gene assay)” value is 0.319 nM.

Take B10: the “Activation of IL-2αβγ triple receptor EC50 (STAT5 luciferase reporter gene assay)” value stood at 1.92 nM.

As for B11, the “Activation of IL-2αβγ triple receptor EC50 (STAT5 luciferase reporter gene assay)” value was 5.12 nM.

Take B12: the “Activation of IL-2αβγ triple receptor EC50 (STAT5 luciferase reporter gene assay)” value was determined as 9.21 nM.

For B13, the “Activation of IL-2αβγ triple receptor EC50 (STAT5 luciferase reporter gene assay)” value came to 3.69 nM.
